Consider 26 sequences from the Immune Epitope Database (IEDB).

pKd: −log10 of the molar value. Where only a bound is given, the exact number is not on record here.

In one experiment the target is HLA-B*35:01. Nature of the experiment: IEDB peptide-MHC binding, purified MHC/competitive/radioactivity; filed as Kd, often an IC50 or EC50 that approximates it; ≥ and ≤ were set here for values at or beyond the usual limits of such assays.
The target of a further experiment is HLA-B*53:01. Described as above.
The target in a further experiment is HLA-B*45:01. The description is as above.
The target of a further experiment is HLA-B*40:02. The description is as above.
The next experiment deals with HLA-B*44:02. The experiment is described as above.
The target in experiment [1] is HLA-B*18:01. The experiment is described as above.
A further experiment deals with HLA-B*44:03. Described as above.
For a further experiment, the target named is HLA-B*40:01. Described as above.
In experiment [2] the target is HLA-B*51:01. Described as above. The settings on record: source organism: Dengue virus 1 Brazil/97-11/1997.
For the next experiment, the target named is HLA-A*68:01. Described as above.
In another experiment the target is HLA-A*30:02. The description is as above. The note with it: source organism: Dengue virus 4 Philippines/H241/1956.
The next experiment deals with HLA-B*15:01. Nature of the experiment: IEDB peptide-MHC binding, purified MHC/competitive/fluorescence; filed as Kd, often an IC50 or EC50 that approximates it; ≥ and ≤ were set here for values at or beyond the usual limits of such assays. The note with it: source organism: Zaire ebolavirus.
Experiment [3] deals with HLA-B*51:01. Described as above. The settings on record: source organism: Zaire ebolavirus.
In the next experiment the target is HLA-B*27:03. The description is as above.
The next experiment has as its target HLA-B*39:01. Described as above. The note with it: source organism: Zaire ebolavirus.
In experiment [4] the target is HLA-B*18:01. Described as above.
In the next experiment the target is HLA-B*57:01. The experiment is described as above. The note with it: source organism: Zaire ebolavirus.
For the next experiment, the target named is HLA-A*69:01. The description is as above. The settings on record: source organism: Zaire ebolavirus.
The next experiment addresses HLA-B*46:01. The experiment is described as above. The note with it: source organism: Zaire ebolavirus.
In a further experiment the target is HLA-B*15:17. The description is as above. The settings on record: source organism: Zaire ebolavirus.
In a further experiment the target is HLA-A*03:01. Nature of the experiment: IEDB peptide-MHC binding, purified MHC/direct/fluorescence; filed as Kd, often an IC50 or EC50 that approximates it; ≥ and ≤ were set here for values at or beyond the usual limits of such assays. The note with it: source organism: Zaire ebolavirus.
Experiment [5] addresses HLA-A*02:01. Described as above. The settings on record: source organism: Sudan ebolavirus - Maleo (1979).
The next experiment has as its target HLA-A*24:03. The description is as above. The settings on record: source organism: Zaire ebolavirus.
For experiment [6], the target named is HLA-A*02:01. Nature of the experiment: IEDB peptide-MHC binding, purified MHC/competitive/fluorescence; filed as Kd, often an IC50 or EC50 that approximates it; ≥ and ≤ were set here for values at or beyond the usual limits of such assays. The note with it: source organism: Homo sapiens.
Another experiment addresses HLA-B*07:02. As to the kind of experiment: IEDB peptide-MHC binding, purified MHC/direct/fluorescence; filed as Kd, often an IC50 or EC50 that approximates it; ≥ and ≤ were set here for values at or beyond the usual limits of such assays. The note with it: source organism: Homo sapiens.
In the next experiment the target is HLA-A*33:01. As to the kind of experiment: IEDB peptide-MHC binding, purified MHC/competitive/radioactivity; filed as Kd, often an IC50 or EC50 that approximates it; ≥ and ≤ were set here for values at or beyond the usual limits of such assays. The settings on record: source organism: Dengue virus 2 Jamaica/1409/1983.
Setting [7] is: source organism: Dengue virus 2 Jamaica/1409/1983.
Setting [8] is: source organism: Mammarenavirus lassaense.
The mark [9] stands for this setting: source organism: Mammarenavirus machupoense.
The mark [10] stands for this setting: source organism: Mammarenavirus juninense.
Setting [11] is: source organism: Dengue virus 1 Brazil/97-11/1997.
[12] abbreviates: source organism: Dengue virus 3 Sri Lanka/1266/2000.
Setting [13] is: source organism: Mammarenavirus guanaritoense.
The mark [14] stands for this setting: source organism: SARS coronavirus Tor2.
[15] abbreviates: source organism: Zaire ebolavirus.
Where [16] appears, read: source organism: Mammarenavirus choriomeningitidis.

In the case of RPASAWTLY, the pKd in the experiment with HLA-B*35:01 (setting [7]) was 7.08; with HLA-B*53:01 (setting [7]) it was 7.06.
Consider YDQMKCKSL, for which the pKd in the experiment with HLA-B*45:01 (setting [8]) is at most 4.23; with HLA-B*40:02 (setting [8]) it was 5.49; with HLA-B*44:02 (setting [8]) it was at most 4.12; in the experiment with HLA-B*18:01 [1] (setting [8]) it was at most 4.11; with HLA-B*44:03 (setting [8]), at most 4.11; with HLA-B*40:01 (setting [8]), at most 4.12.
Take NDNFLMRNV: the pKd is at most 4.11 with HLA-B*45:01 (setting [9]); 5.67 with HLA-B*40:02 (setting [9]); 5.00 with HLA-B*44:02 (setting [9]); at most 4.12 with HLA-B*18:01 [1] (setting [9]); at most 4.37 with HLA-B*44:03 (setting [9]); at most 4.12 in the experiment with HLA-B*40:01 (setting [9]).
As to REAYCQEFSL, the pKd with HLA-B*45:01 (setting [8]) was 5.81; with HLA-B*40:02 (setting [8]), 8.87; with HLA-B*44:02 (setting [8]), 5.97; with HLA-B*18:01 [1] (setting [8]), 4.95; in the experiment with HLA-B*44:03 (setting [8]), 5.55; with HLA-B*40:01 (setting [8]), 5.01.
As to PDVLRSDVY, the pKd with HLA-B*45:01 (setting [10]) is at most 4.11; with HLA-B*40:02 (setting [10]), at most 4.11; with HLA-B*44:02 (setting [10]), at most 4.31; with HLA-B*18:01 [1] (setting [10]) it was 5.65; in the experiment with HLA-B*44:03 (setting [10]), at most 4.11; with HLA-B*40:01 (setting [10]), at most 4.12.
As for YAQMWQLMYF, the pKd was 6.02 with HLA-B*35:01 (setting [11]), 4.71 with HLA-B*51:01 [2] and 7.09 with HLA-B*53:01 (setting [11]).
As to REPAGLGSM, the pKd in the experiment with HLA-B*45:01 (setting [8]) was at most 4.11; with HLA-B*40:02 (setting [8]), 7.07; in the experiment with HLA-B*44:02 (setting [8]), at most 4.47; with HLA-B*18:01 [1] (setting [8]) it was 5.09; with HLA-B*44:03 (setting [8]), at most 4.11; with HLA-B*40:01 (setting [8]), 5.10.
In the case of SDHLISEML, the pKd with HLA-B*45:01 (setting [9]) was 4.76; in the experiment with HLA-B*40:02 (setting [9]), 6.66; with HLA-B*44:02 (setting [9]) it was 4.91; with HLA-B*18:01 [1] (setting [9]), at most 4.11; in the experiment with HLA-B*44:03 (setting [9]) it was at most 4.50; with HLA-B*40:01 (setting [9]), at most 4.65.
With FTNMEAQLVR, the pKd with HLA-B*35:01 (setting [12]) was 4.93; with HLA-A*68:01 (setting [12]), 7.10.
As to KEINLLSQT, the pKd with HLA-B*45:01 (setting [9]) is 5.17; in the experiment with HLA-B*40:02 (setting [9]) it was 7.51; with HLA-B*44:02 (setting [9]), 4.77; with HLA-B*18:01 [1] (setting [9]) it was at most 4.11; with HLA-B*44:03 (setting [9]), 4.84; with HLA-B*40:01 (setting [9]) it was at most 4.47.
With AEWLEMICF, the pKd in the experiment with HLA-B*45:01 (setting [9]) was 7.08; with HLA-B*40:02 (setting [9]), 7.71; in the experiment with HLA-B*44:02 (setting [9]), 7.35; in the experiment with HLA-B*18:01 [1] (setting [9]), 6.79; with HLA-B*44:03 (setting [9]), 7.17; with HLA-B*40:01 (setting [9]) it was 5.70.
As for IDFLIMRNL, the pKd with HLA-B*45:01 (setting [13]) is 4.74; with HLA-B*40:02 (setting [13]), 6.65; in the experiment with HLA-B*44:02 (setting [13]), 4.84; with HLA-B*18:01 [1] (setting [13]) it was 4.82; in the experiment with HLA-B*44:03 (setting [13]), 4.79; with HLA-B*40:01 (setting [13]) it was 4.81.
Turning to LALMATFKM, the pKd in the experiment with HLA-B*35:01 (setting [11]) was 6.96.
With YAGPFSQHNY, the pKd in the experiment with HLA-B*35:01 (source organism: Dengue virus 4 Philippines/H241/1956) is 6.95; in the experiment with HLA-A*30:02, 7.83.
As to EEVVENPTI, the pKd with HLA-B*45:01 (setting [14]) was 5.91; with HLA-B*40:02 (setting [14]), 5.31; with HLA-B*44:02 (setting [14]), 5.34; in the experiment with HLA-B*18:01 [1] (setting [14]), at most 4.34; in the experiment with HLA-B*44:03 (setting [14]) it was 6.11; with HLA-B*40:01 (setting [14]) it was 5.56.
Take GEDTVWEVQG: the pKd is 5.39 with HLA-B*45:01 (setting [14]); 4.74 with HLA-B*40:02 (setting [14]); at most 4.35 with HLA-B*44:02 (setting [14]); at most 4.15 with HLA-B*18:01 [1] (setting [14]); 4.79 with HLA-B*44:03 (setting [14]); at most 4.53 with HLA-B*40:01 (setting [14]).
As for KLINTLFHA, the pKd in the experiment with HLA-B*15:01, in the experiment with HLA-B*51:01 [3], in the experiment with HLA-B*27:03 (setting [15]), with HLA-B*39:01, in the experiment with HLA-B*18:01 [4] (setting [15]) and with HLA-B*57:01 was at most 4.70 in each case. Moreover, the pKd was at most 4.70 in the experiment with HLA-A*69:01; at most 4.70 in the experiment with HLA-B*46:01; at most 4.70 with HLA-B*15:17; at most 4.70 with HLA-A*03:01; 8.33 in the experiment with HLA-A*02:01 [5]; at most 4.70 with HLA-A*24:03.
Regarding FEDQFLPFMS, the pKd was 5.46 in the experiment with HLA-B*45:01 (setting [16]); 6.51 with HLA-B*40:02 (setting [16]); 4.84 in the experiment with HLA-B*44:02 (setting [16]); 5.62 with HLA-B*18:01 [1] (setting [16]); at most 4.57 with HLA-B*44:03 (setting [16]); 5.41 with HLA-B*40:01 (setting [16]).
With QEIQLLAAV, the pKd is 8.06 with HLA-B*45:01 (setting [14]); 4.71 with HLA-B*40:02 (setting [14]); 7.03 with HLA-B*44:02 (setting [14]); 6.84 in the experiment with HLA-B*18:01 [1] (setting [14]); 7.31 with HLA-B*44:03 (setting [14]); 7.58 with HLA-B*40:01 (setting [14]).
As to PDFNSLISI, the pKd with HLA-B*45:01 (setting [9]) is at most 4.11; with HLA-B*40:02 (setting [9]) it was 6.09; with HLA-B*44:02 (setting [9]) it was at most 4.58; with HLA-B*18:01 [1] (setting [9]) it was at most 4.11; with HLA-B*44:03 (setting [9]), at most 4.11; in the experiment with HLA-B*40:01 (setting [9]), 4.80.
Regarding ADSEITETY, the pKd with HLA-B*45:01 (setting [13]) is 4.77; in the experiment with HLA-B*40:02 (setting [13]) it was at most 4.11; with HLA-B*44:02 (setting [13]) it was 5.18; in the experiment with HLA-B*18:01 [1] (setting [13]) it was 5.86; in the experiment with HLA-B*44:03 (setting [13]) it was 5.56; with HLA-B*40:01 (setting [13]), at most 4.42.
As to GVRQFSGWM, the pKd in the experiment with HLA-B*27:03 (source organism: Homo sapiens) was at most 4.70; with HLA-A*02:01 [6] it was at most 4.70; with HLA-B*18:01 [4] (source organism: Homo sapiens), at most 4.70; with HLA-B*07:02, 7.66.
As to WHYDDENPY, in the experiment with HLA-B*35:01 (source organism: Dengue virus 3 Martinique/1243/1999), the pKd was 5.58.
In the case of TELEPPCRF, the pKd with HLA-B*45:01 (setting [14]) was 4.92; in the experiment with HLA-B*40:02 (setting [14]), 4.85; with HLA-B*44:02 (setting [14]) it was 7.00; in the experiment with HLA-B*18:01 [1] (setting [14]), 6.05; with HLA-B*44:03 (setting [14]), 7.20; with HLA-B*40:01 (setting [14]) it was at most 4.55.
FENKTTLPV: the pKd was 6.07 with HLA-B*45:01 (setting [14]); 7.60 with HLA-B*40:02 (setting [14]); 4.77 with HLA-B*44:02 (setting [14]); 6.18 with HLA-B*18:01 [1] (setting [14]); 5.73 with HLA-B*44:03 (setting [14]); 6.94 with HLA-B*40:01 (setting [14]).
In the case of FTNMEAQLIR, the values for the pKd in the experiment with HLA-B*35:01 (setting [7]), with HLA-A*68:01 (setting [7]) and with HLA-A*33:01 were 5.01, 7.71 and 6.97, respectively.
